The results in this text go back to article PMC6573788.

The target in test [1] is ΔRACK1 40S ribosomal subunit (human 40S subunit without RACK1) (human (endogenous in HAP1)) (UniProt P23396). In words: native gel or EMSA. For orientation: A gel shift assay detects complexes by their altered migration in electrophoresis.
The target is the same in test [2]. In words: FRET or BRET. For orientation: Bioluminescence resonance energy transfer reports proximity on the nanometre scale.

On to “native RACK1-ybbR expressed in ΔRACK1 HAP1 cells (from UniProt P63244 1-317) (natural protein)”, for which, in test [1], the t1/2 of RACK1 on the ribosome worked out at 15 h.

B1: recombinant Asc1p-ybbR (S. cerevisiae RACK1 ortholog) (natural protein)
chain: MASNEVLVLRGTLEGHNGWVTSLATSAGQPNLLLSASRDKTLISWKLTGDDQKFGVPVRSFKGHSHIVQDCTLTADGAYALSASWDKTLRLWDVATGETYQRFVGHKSDVMSVDIDKKASMIISGSRDKTIKVWTIKGQCLATLLGHNDWVSQVRVVPNEKADDDSVTIISAGNDKMVKAWNLNQFQIEADFIGHNSNINTLTASPDGTLIASAGKDGEIMLWNLAAKKAMYTLSAQDEVFSLAFSPNRYWLAAATATGIKVFSLDPQYLVDDLRPEFAGYSKAAEPHAVSLAWSADGQTLFAGYTDNVIRVWQVMTAN
In test [2], B1 registered a kobs of the fast phase at 75 nM of 0.2 s⁻¹ and a kon of the fast phase of 2e+06 M⁻¹ s⁻¹.
